# Data published in the supplement of paper PMC9732359.
# ± gives the uncertainty stated by the source.
# Test: protein stability index of a GFP-peptide fusion (yeast GPS) (PSI 1-4); higher = more stable; sorted into four equal gates, so the index is relative within each strain
# Outline: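 Tiled 17-residue yeast protein peptides were fused downstream of GFP in a plasmid that also expresses Cherry, and the pooled library was carried in yeast. Mid-log cultures in leucine-free medium were sorted into four equal gates by GFP/Cherry fluorescence ratio, and plasmids from each gate were PCR-amplified and Illumina-sequenced, with reads assigned to strains by barcodes. The protein stability index for each peptide was each gate's read frequency times its gate number, summed.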
Sequence,protein stability index (doa10∆),protein stability index (pdr5∆),protein stability index (san1∆),protein stability index (ubr1∆)
NDNNSPHTPVTRKGYIP [YLR018C/POM34],3.1 ± 0.081,2.88 ± 0.073,2.85 ± 0.078,3.01 ± 0.055
LTYDKDLTNNPQDDDSQ [MTR3],2.8 ± 0.073,3.21 ± 0.099,3 ± 0.081,3.1 ± 0.075
MSAPEAQQQKRGGFGGR [RPS2],–,3.25 ± 0.13,3.28 ± 0.1,3.33 ± 0.17
DKLLDPTTVSYIFCISR [SCL1],2.97 ± 0.045,3.1 ± 0.06,3.181 ± 0.029,3.22 ± 0.051
AASLIMPFLDNQVNFKN [PRE7],–,2.7 ± 0.081,1.31 ± 0.17,1.39 ± 0.093
GLSILFLTGQFASNKKI [YML103C/NUP188],2.36 ± 0.068,2.37 ± 0.062,2.68 ± 0.079,2.35 ± 0.052
KKAKLVLIANDVDPIEL [RPL8A],3.17 ± 0.15,2.81 ± 0.068,3.09 ± 0.07,2.83 ± 0.072
RVNEMVQGMNDDIFIRY [ECM29],1.7 ± 0.095,1.89 ± 0.17,2.09 ± 0.19,2.39 ± 0.11
FVDDTNVYRVTVHKTFE [PRP8],2.68 ± 0.087,2.74 ± 0.11,2.21 ± 0.096,2.52 ± 0.068
DLQYLGEFSGKNFSPTK [RRP6],3.46 ± 0.063,3.25 ± 0.083,3.19 ± 0.04,3.24 ± 0.038
VADAKQLGEWAGLGKID [RPS12],3.67 ± 0.28,–,3.46 ± 0.24,3.35 ± 0.13
FEQCCKEKKELQMRLKE [YIL149C/MLP2],–,3.11 ± 0.29,–,–
VLGIKVKIMRDPAKSRT [RPS3],2.67 ± 0.067,2.78 ± 0.054,2.98 ± 0.049,3.16 ± 0.037
FPKIDSLAQNDCNSALD [RPN5],2.52 ± 0.062,2.64 ± 0.049,3.03 ± 0.05,2.93 ± 0.045
NQKIPDNVIVINHKINN [SIR3],1.93 ± 0.06,2.03 ± 0.053,1.79 ± 0.066,2.14 ± 0.041
KKNNLEFGTYGKYVIAG [RPN14],2.51 ± 0.088,2.09 ± 0.069,1.79 ± 0.14,2.1 ± 0.065
GLKRSQLDEFKNKYLKD [SWP82],3.11 ± 0.13,2.89 ± 0.21,2.89 ± 0.12,2.69 ± 0.17
FDDSSRIVNHKTKLWGF [LIN1],3.09 ± 0.071,2.98 ± 0.08,3.1 ± 0.069,2.94 ± 0.055
AILKLLENMPHPWEQAK [PRP8],2.76 ± 0.12,2.05 ± 0.088,1.93 ± 0.13,2.16 ± 0.057
SDSIELLKQYPKDSSST [YJR042W/NUP85],2.62 ± 0.047,2.77 ± 0.051,2.61 ± 0.044,2.82 ± 0.041
AGRGFTLAEVKAAGLTA [RPL13A],2.27 ± 0.073,2.5 ± 0.071,1.56 ± 0.093,1.77 ± 0.044
IRTQVNTGGESVVKKED [RGR1],3.32 ± 0.18,3.5 ± 0.093,3.41 ± 0.098,3.4 ± 0.088
PAFSFGAKPEEKKDDNS [YJL041W/NSP1],3.27 ± 0.16,3.26 ± 0.13,2.98 ± 0.24,3.29 ± 0.13
ERLDKDKDRDTRRKRRQ [SNF5],2.82 ± 0.13,3.27 ± 0.21,2.9 ± 0.11,3.46 ± 0.13
EILTNQQRGITYLNEVL [YGR119C/NUP57],2.7 ± 0.068,3.09 ± 0.079,3.12 ± 0.061,2.71 ± 0.066
GGNSTQNTSNMNAGGLF [YGR119C/NUP57],3.26 ± 0.093,3.15 ± 0.06,3.04 ± 0.055,3.19 ± 0.081
KTDQEEEREGTDQSTEE [CSL4],3.12 ± 0.16,–,–,–
